Where a chain is given by its changes, count along the chain named.

Sequences and labels used below:
T1: AP2-HC D1 (Plasmodium falciparum, UniProt Q8IKR9 1316-1374)
T1 sequence: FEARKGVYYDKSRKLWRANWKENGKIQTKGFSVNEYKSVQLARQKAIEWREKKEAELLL

B1: CACACA_negctrl_site585 (dsDNA)
DNA 1: TTTTTTTCTTGTTTTAAATAATATACTGGAAAAAAA
DNA 2: TTTTTTTCCAGTATATTATTTAAAACAAGAAAAAAA
B2: CACACA_negctrl_site807 (dsDNA)
DNA 1: TTTTTTTTTTTTTTTTTTAAACACCTCAAAAAAAAA
DNA 2: TTTTTTTTTGAGGTGTTTAAAAAAAAAAAAAAAAAA
B3: CACACA_negctrl_site143 (dsDNA)
DNA 1: ATAAACAGAAAAAAAAAAAAAAAAAAAAAAAAAAAA
DNA 2: TTTTTTTTTTTTTTTTTTTTTTTTTTTTCTGTTTAT
B4: CACACA_negctrl_site292 (dsDNA)
DNA 1: B3 DNA 1 with T2A, C6A, G8A, A36G
DNA 2: B3 DNA 2 with T1C, C29T, G31T, A35T
B5: CACACA_negctrl_site59 (dsDNA)
DNA 1: B3 DNA 1 with T2A, C6A, G8A, A30T
DNA 2: B3 DNA 2 with T7A, C29T, G31T, A35T
B6: CACACA_negctrl_site1293 (dsDNA)
DNA 1: TCATATTCCAAAAAAAAAAAAAAAAAAAAAAAAATA
DNA 2: TATTTTTTTTTTTTTTTTTTTTTTTTTGGAATATGA
B7: CACACA_negctrl_site1113 (dsDNA)
DNA 1: TTTTTTTTTAAAGAAAATAAAAATATGTACTTGACA
DNA 2: TGTCAAGTACATATTTTTATTTTCTTTAAAAAAAAA
B8: CACACA_negctrl_site18 (dsDNA)
DNA 1: TTTTTTTTTCTTCTTTTCAAATTTAAGAAATTATAA
DNA 2: TTATAATTTCTTAAATTTGAAAAGAAGAAAAAAAAA
B9: CACACA_negctrl_site1718 (dsDNA)
DNA 1: TTTTTGCAAAAAGAAATAATTTTATTTTAGTTCGGA
DNA 2: TCCGAACTAAAATAAAATTATTTCTTTTTGCAAAAA
B10: CACACA_negctrl_site1657 (dsDNA)
DNA 1: TATTACATTATTCAAAAAAATTTATATGGTTATAGG
DNA 2: CCTATAACCATATAAATTTTTTTGAATAATGTAATA
B11: CACACA_negctrl_site273 (dsDNA)
DNA 1: TTTTTTTTTTTTTTTTTTTTTTGTGAAACTAAGTAA
DNA 2: TTACTTAGTTTCACAAAAAAAAAAAAAAAAAAAAAA
B12: CACACA_negctrl_site34 (dsDNA)
DNA 1: TTATGTATATTATAAATTAATACATTTAAATTAATA
DNA 2: TATTAATTTAAATGTATTAATTTATAATATACATAA
B13: CACACA_negctrl_site1298 (dsDNA)
DNA 1: ATATTATCATTTTTTTTAATGGAAAAAAAAAAAAAA
DNA 2: TTTTTTTTTTTTTTCCATTAAAAAAAATGATAATAT
B14: CACACA_site6743 (dsDNA)
DNA 1: AAGAAGCATAAATGTACACACATATTTATATATCAA
DNA 2: TTGATATATAAATATGTGTGTACATTTATGCTTCTT
B15: CACACA_negctrl_site488 (dsDNA)
DNA 1: TTTTTAATAAAATGATTGATAATTATTAAATTAAAA
DNA 2: TTTTAATTTAATAATTATCAATCATTTTATTAAAAA
B16: CACACA_negctrl_site1354 (dsDNA)
DNA 1: TCTTTTTTTTCTTTTTTTTTATTTAAATATCAAGTA
DNA 2: TACTTGATATTTAAATAAAAAAAAAGAAAAAAAAGA
B17: CACACA_negctrl_site452 (dsDNA)
DNA 1: AATATATGATAATTTTTTTTTTTTTTTTTTAAATAT
DNA 2: ATATTTAAAAAAAAAAAAAAAAAATTATCATATATT
B18: CACACA_negctrl_site1727 (dsDNA)
DNA 1: TAACCACAAAAATAAAATCAAAAAAAAAAAAAAAAA
DNA 2: TTTTTTTTTTTTTTTTTGATTTTATTTTTGTGGTTA
B19: CACACA_negctrl_site1524 (dsDNA)
DNA 1: TTTTTTTTTTTTTTTTTTTTACCCCTTTTTCAAAAA
DNA 2: TTTTTGAAAAAGGGGTAAAAAAAAAAAAAAAAAAAA
B20: CACACA_negctrl_site819 (dsDNA)
DNA 1: TGATTATATAAAAAAAAGAAAAAAAAAAAAAAAAAA
DNA 2: TTTTTTTTTTTTTTTTTTCTTTTTTTTATATAATCA
B21: CACACA_site8007 (dsDNA)
DNA 1: TTTATTTTATCATTTGCACACGCACCCCCACATAAA
DNA 2: TTTATGTGGGGGTGCGTGTGCAAATGATAAAATAAA
B22: CACACA_negctrl_site1615 (dsDNA)
DNA 1: TTTTTTTGCATGAGCAATAAAAAAGGCTTGTTCAAA
DNA 2: TTTGAACAAGCCTTTTTTATTGCTCATGCAAAAAAA
B23: CACACA_site3408 (dsDNA)
DNA 1: GATCTATACATGGGGACACACATCACTCTATATTTT
DNA 2: AAAATATAGAGTGATGTGTGTCCCCATGTATAGATC
B24: CACACA_negctrl_site383 (dsDNA)
DNA 1: GGAACCATCCAAAAAAAAAAAAAAAATAATAATAAT
DNA 2: ATTATTATTATTTTTTTTTTTTTTTTGGATGGTTCC
B25: CACACA_negctrl_site1253 (dsDNA)
DNA 1: TAATATTTCGTTAAGTTTTAAAGAAAAAAAAAAAAA
DNA 2: TTTTTTTTTTTTTCTTTAAAACTTAACGAAATATTA
B26: CACACA_negctrl_site1226 (dsDNA)
DNA 1: TGTTATTTAAATAATTCTTTTTAAAAGATGAATTAT
DNA 2: ATAATTCATCTTTTAAAAAGAATTATTTAAATAACA
B27: CACACA_site1882 (dsDNA)
DNA 1: ATATAGATCTACACTGCACACATTTTTAACACTGCT
DNA 2: AGCAGTGTTAAAAATGTGTGCAGTGTAGATCTATAT
B28: CACACA_site382 (dsDNA)
DNA 1: GATATATATATTCACACACACATGGAAATATATATA
DNA 2: TATATATATTTCCATGTGTGTGTGAATATATATATC
B29: CACACA_site9316 (dsDNA)
DNA 1: CTTTTTAATAAATATACACACACAAAAAAAAAAAAA
DNA 2: TTTTTTTTTTTTTGTGTGTGTATATTTATTAAAAAG
B30: CACACA_negctrl_site1343 (dsDNA)
DNA 1: TTTTAAAAAAAAAAAAAAAAAAAAAAAAAAAAAAAA
DNA 2: TTTTTTTTTTTTTTTTTTTTTTTTTTTTTTTTAAAA
B31: CACACA_negctrl_site1670 (dsDNA)
DNA 1: TTTATTTAAAAAATAAAAAAAAAAAAAAAAAAAAAA
DNA 2: TTTTTTTTTTTTTTTTTTTTTTATTTTTTAAATAAA
B32: CACACA_negctrl_site1514 (dsDNA)
DNA 1: GAATAAAAAAAAAAAAAAATTTATTTTATAATAAAA
DNA 2: TTTTATTATAAAATAAATTTTTTTTTTTTTTTATTC
B33: CACACA_site7113 (dsDNA)
DNA 1: TACGTTCTGATATATACACACCTGGTATTAATTATG
DNA 2: CATAATTAATACCAGGTGTGTATATATCAGAACGTA
B34: CACACA_negctrl_site1196 (dsDNA)
DNA 1: AAAAATTGAATTTTTTTTTTTTTTTTGAGAAGGAAA
DNA 2: TTTCCTTCTCAAAAAAAAAAAAAAAATTCAATTTTT
B35: CACACA_negctrl_site1057 (dsDNA)
DNA 1: TGATTTTTTTTTTTTTTTTTTTTTTTTTTAGTTTGC
DNA 2: GCAAACTAAAAAAAAAAAAAAAAAAAAAAAAAATCA
B36: CACACA_negctrl_site191 (dsDNA)
DNA 1: TTGTTCATCTTTTTTTTTTTTTTTTTTTTTTAAATC
DNA 2: GATTTAAAAAAAAAAAAAAAAAAAAAAGATGAACAA
B37: CACACA_negctrl_site959 (dsDNA)
DNA 1: ATTTTTTTTTAATGCAAAAGGTGATGATCGGTCATA
DNA 2: TATGACCGATCATCACCTTTTGCATTAAAAAAAAAT
B38: CACACA_negctrl_site822 (dsDNA)
DNA 1: TTTTTTCAATAAATAATCGTATATTGAATAATAATA
DNA 2: TATTATTATTCAATATACGATTATTTATTGAAAAAA
B39: CACACA_site2909 (dsDNA)
DNA 1: TTCTTTTTCCAATTTGCACACCACAAAATTATATAT
DNA 2: ATATATAATTTTGTGGTGTGCAAATTGGAAAAAGAA
B40: CACACA_site8492 (dsDNA)
DNA 1: AAAAAAAAAAAAAAAACACACACAAATTTAATATAT
DNA 2: ATATATTAAATTTGTGTGTGTTTTTTTTTTTTTTTT
B41: CACACA_site8055 (dsDNA)
DNA 1: ATCTAAATAAAGTTAACACACACATAATATATATAT
DNA 2: ATATATATATTATGTGTGTGTTAACTTTATTTAGAT

This data set deals with T1, AP2-HC D1. Kind of data set: gcPBM; about 25 ug protein; PBS, 1% milk, 0.2 mg/ml BSA, salmon testes DNA, 0.03% Triton X-100. The conditions noted are these: tags: N-terminal GST (pGEX-4T-1), kept; label: surface-attached array probe.
For the molecule B1, the binding signal is 8.87 ln median PBM intensity, better of two orientations.

Turning to B2, the binding signal was 8.83 ln median PBM intensity, better of two orientations.

On to B3, for which the binding signal was 8.89 ln median PBM intensity, better of two orientations.

With B4, the binding signal was 9.04 ln median PBM intensity, better of two orientations.

As for B5, the binding signal was 9.2 ln median PBM intensity, better of two orientations.

B6: the binding signal was 9.15 ln median PBM intensity, better of two orientations.

For B7, the binding signal was 9.17 ln median PBM intensity, better of two orientations.

Consider B8, for which the binding signal is 9.28 ln median PBM intensity, better of two orientations.

B9: the binding signal is 9.16 ln median PBM intensity, better of two orientations.

Take B10: the binding signal is 9.24 ln median PBM intensity, better of two orientations.

B11: the binding signal is 8.92 ln median PBM intensity, better of two orientations.

With B12, the binding signal is 9.28 ln median PBM intensity, better of two orientations.

For B13, the binding signal was 9.12 ln median PBM intensity, better of two orientations.

Regarding B14, the binding signal is 10.1 ln median PBM intensity, better of two orientations.

For the molecule B15, the binding signal is 9.22 ln median PBM intensity, better of two orientations.

Turning to B16, the binding signal was 9.2 ln median PBM intensity, better of two orientations.

With B17, the binding signal was 9.23 ln median PBM intensity, better of two orientations.

On to B18, for which the binding signal is 8.75 ln median PBM intensity, better of two orientations.

On to B19, for which the binding signal is 8.65 ln median PBM intensity, better of two orientations.

As for B20, the binding signal is 9.07 ln median PBM intensity, better of two orientations.

Turning to B21, the binding signal is 10 ln median PBM intensity, better of two orientations.

On to B22, for which the binding signal was 9.03 ln median PBM intensity, better of two orientations.

In the case of B23, the binding signal is 10.1 ln median PBM intensity, better of two orientations.

As to B24, the binding signal is 9.18 ln median PBM intensity, better of two orientations.

Take B25: the binding signal is 9.21 ln median PBM intensity, better of two orientations.

Turning to B26, the binding signal was 9.21 ln median PBM intensity, better of two orientations.

For the molecule B27, the binding signal is 10 ln median PBM intensity, better of two orientations.

With B28, the binding signal is 10.1 ln median PBM intensity, better of two orientations.

Turning to B29, the binding signal was 10.1 ln median PBM intensity, better of two orientations.

B30: the binding signal was 8.78 ln median PBM intensity, better of two orientations.

As to B31, the binding signal is 8.32 ln median PBM intensity, better of two orientations.

With B32, the binding signal is 9.25 ln median PBM intensity, better of two orientations.

In the case of B33, the binding signal is 10 ln median PBM intensity, better of two orientations.

In the case of B34, the binding signal is 9.23 ln median PBM intensity, better of two orientations.

In the case of B35, the binding signal was 9.25 ln median PBM intensity, better of two orientations.

For B36, the binding signal was 9.2 ln median PBM intensity, better of two orientations.

For B37, the binding signal was 9.27 ln median PBM intensity, better of two orientations.

For the molecule B38, the binding signal is 9.23 ln median PBM intensity, better of two orientations.

B39: the binding signal was 10 ln median PBM intensity, better of two orientations.

Consider B40, for which the binding signal is 10.1 ln median PBM intensity, better of two orientations.

B41: the binding signal was 10.1 ln median PBM intensity, better of two orientations.

Values taken from paper PMC11417369, “DNA sequence and chromatin differentiate sequence-specific transcription factor binding in the human malaria parasite Plasmodium falciparum”.
